Measured values as given in patent US20100291106A1 (Novartis, published 2010).
Where a chain is given by its changes, count along the chain named. Read-outs that look alike come from different tables or passages of the source. Values belong to the binder of their own block, whether it stands above or below them.

Legend:
[1] = molecular target: T1, human complement C3b protein (human, UniProt P01024 23-667; P01024 749-1663); assay: cell-based or functional assay
[2] = molecular target: T2, cynomolgus complement C3b protein (cynomolgus monkey (Macaca fascicularis)); assay: cell-based or functional assay
[3] = molecular target: T3, human C3d (human, UniProt P01024 1002-1303); assay: cross reactivity, ELISA on C3d, anti-His detection
T3 construct: domain: C3d
T3 sequence (P01024 1002-1303 limits assumed): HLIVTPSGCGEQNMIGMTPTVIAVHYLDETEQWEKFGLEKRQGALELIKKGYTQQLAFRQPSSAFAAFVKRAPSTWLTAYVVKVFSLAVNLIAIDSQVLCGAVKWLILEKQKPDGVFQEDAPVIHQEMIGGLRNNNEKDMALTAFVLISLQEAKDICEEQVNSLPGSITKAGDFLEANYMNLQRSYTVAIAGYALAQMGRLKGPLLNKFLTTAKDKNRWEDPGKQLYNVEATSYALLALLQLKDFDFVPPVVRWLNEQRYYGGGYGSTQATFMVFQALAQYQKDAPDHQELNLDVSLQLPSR
Protocol: In order to determine whether the anti-C3b antibodies described herein can bind to complement pathway components iC3b and C3c, the following steps were performed: Directly add iC3b(complement Technologies A115), C3d (complement Technologies A117), or C3c (complement Technologies A116), at 2 μg/ml in Carbonate Buffer onto Coat Maxisorp plate Nunc (442404) at 100 μl per well. Seal plates and incubate at 4° C. overnight. Aspirate plates and wash 3 times with PBS/0.5% Tween 20. Block plates with Diluent (PBS, 4% BSA Fraction V (Fisher ICN16006980), 0.1% Tween 20 (Sigma P1379), 0.1% Triton X-100 (Sigma P234729)) and incubate for 2 h at room temperature or overnight at 4° C. Then wash plates once with PBS/0.5% Tween 20. Dilute Fabs at 100 nM and subsequent dilutions (or higher concentration if needed) in diluent and plate 100 μl per well. Incubate at room temperature for 1 h. Wash plates 3 times with PBS/0.5% Tween 20. Add 100 μl/well of anti-Histidine-HRP monoclonal detection antibody at 1:400 in diluent and incubate at room temperature for 1 h. Then wash 4 times with PBS/0.5% Tween 20. Add 100 μl of TMB substrate (Pierce 34028) and incubate at room temperature for up to 5 min. Add 50 μl of Stop solution (2N Sulfuric Acid) to each well and read plate at 450 nm and correct for plastic reading at 570 nm.

[4] = molecular target: T1, human complement C3b protein; assay: solution equilibrium titration (SET), ECL detection, Fab
[5] = molecular target: T2, cynomolgus complement C3b protein; assay: as above
[6] = molecular target: T1, human complement C3b protein; assay: SPR (Biacore), C3b captured by anti-C3d antibody, Fab as analyte
[7] = molecular target: T2, cynomolgus complement C3b protein; assay: as above
[8] = molecular target: T1, human complement C3b protein; assay: bead proximity assay, C3b-acceptor beads; competitor fP-donor beads
Protocol: (§1) For C3b-C3b and C3b-fP proximity, Fabs or IgGs respectively were pre-incubated with C3b-Acceptor beads (20 μg/ml) for 60 min at room temperature. C3b-Donor beads or fP-Donor beads (20 μg/ml) were then added, and the plate was incubated overnight at room temperature before reading. For C3b-fB and C3b-fH proximity, antibodies were pre-incubated with C3b-Acceptor beads (20 μg/ml) for 60 minutes at room temperature. Biotinylated fB(D24G/N260D) or fH were then added, and incubated for 60 minutes at room temperature. SA-Donor beads were then added (20 μg/ml) and the plate was incubated overnight at room temperature before reading. Plates were read on the BMG Pherastar (ex=680, em=520-620).

[9] = molecular target: T1, human complement C3b protein; assay: bead proximity assay, C3b-acceptor beads; competitor biotinylated fH
Protocol: as §1

[10] = molecular target: T1, human complement C3b protein; assay: bead proximity assay, C3b-acceptor beads; competitor biotinylated fB(D24G/N260D)
Protocol: as §1

[11] = molecular target: T4, human C5 (human, UniProt P01031 19-673; P01031 678-1676); assay: cross reactivity, capture ELISA with anti-C5 capture antibody, anti-His detection
T4 construct: Captured by an anti-C5 antibody in the ELISA
T4 sequence (P01031 19-673 limits assumed, chain 1 of 2): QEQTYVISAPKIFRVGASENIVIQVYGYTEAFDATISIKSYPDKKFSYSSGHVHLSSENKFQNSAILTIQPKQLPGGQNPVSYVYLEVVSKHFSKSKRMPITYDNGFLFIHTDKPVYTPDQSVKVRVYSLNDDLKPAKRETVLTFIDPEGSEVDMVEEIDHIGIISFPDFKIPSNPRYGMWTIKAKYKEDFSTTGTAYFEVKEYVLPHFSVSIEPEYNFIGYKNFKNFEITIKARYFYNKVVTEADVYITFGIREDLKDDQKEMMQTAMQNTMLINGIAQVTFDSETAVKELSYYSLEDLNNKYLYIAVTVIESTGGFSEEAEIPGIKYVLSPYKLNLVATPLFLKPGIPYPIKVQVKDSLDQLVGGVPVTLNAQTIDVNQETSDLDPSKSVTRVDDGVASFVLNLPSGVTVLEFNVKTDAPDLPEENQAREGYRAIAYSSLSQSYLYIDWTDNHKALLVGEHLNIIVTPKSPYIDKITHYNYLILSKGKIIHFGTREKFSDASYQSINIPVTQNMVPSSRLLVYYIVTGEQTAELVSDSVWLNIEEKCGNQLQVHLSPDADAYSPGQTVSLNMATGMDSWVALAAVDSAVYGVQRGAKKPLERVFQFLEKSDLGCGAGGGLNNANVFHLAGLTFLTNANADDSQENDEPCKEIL
T4 sequence (P01031 678-1676 limits assumed, chain 2 of 2): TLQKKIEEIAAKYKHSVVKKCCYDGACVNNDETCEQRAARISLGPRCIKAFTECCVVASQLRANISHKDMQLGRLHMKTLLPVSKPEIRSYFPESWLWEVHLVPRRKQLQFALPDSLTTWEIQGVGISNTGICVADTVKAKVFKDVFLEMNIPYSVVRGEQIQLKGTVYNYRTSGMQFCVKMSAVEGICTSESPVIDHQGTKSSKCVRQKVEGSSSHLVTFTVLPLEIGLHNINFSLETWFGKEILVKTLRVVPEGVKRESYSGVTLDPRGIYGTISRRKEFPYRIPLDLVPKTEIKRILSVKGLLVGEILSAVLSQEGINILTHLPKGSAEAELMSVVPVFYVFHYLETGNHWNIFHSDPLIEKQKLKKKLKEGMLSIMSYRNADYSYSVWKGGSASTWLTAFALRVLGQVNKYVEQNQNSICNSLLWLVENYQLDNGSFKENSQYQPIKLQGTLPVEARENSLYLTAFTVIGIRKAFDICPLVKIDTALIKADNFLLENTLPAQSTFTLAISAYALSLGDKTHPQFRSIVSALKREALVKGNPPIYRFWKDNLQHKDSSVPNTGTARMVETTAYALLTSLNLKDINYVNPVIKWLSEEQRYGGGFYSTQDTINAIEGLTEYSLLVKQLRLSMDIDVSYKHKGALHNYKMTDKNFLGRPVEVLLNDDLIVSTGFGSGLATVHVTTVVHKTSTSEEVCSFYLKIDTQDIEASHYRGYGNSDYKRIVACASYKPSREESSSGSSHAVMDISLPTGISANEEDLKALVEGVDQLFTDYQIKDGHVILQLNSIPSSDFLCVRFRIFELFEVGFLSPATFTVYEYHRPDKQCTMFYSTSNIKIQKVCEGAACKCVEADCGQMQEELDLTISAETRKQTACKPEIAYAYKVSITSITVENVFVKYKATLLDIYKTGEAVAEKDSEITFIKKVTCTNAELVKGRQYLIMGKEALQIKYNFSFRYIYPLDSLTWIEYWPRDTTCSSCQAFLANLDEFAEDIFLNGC

[12] = molecular target: T1, human complement C3b protein; assay: cell-based or functional assay; remark: listed apart in the source
[13] = molecular target: T2, cynomolgus complement C3b protein; assay: cell-based or functional assay; remark: listed apart in the source
[14] = molecular target: T4, human C5; assay: Direct ELISA at 2 ug/ml C5, 200 nM Fab
[15] = molecular target: T3, human C3d; assay: cross reactivity, ELISA on C3d, anti-His detection; remark: listed apart in the source
[16] = molecular target: T1, human complement C3b protein; assay: solution equilibrium titration (SET), ECL detection, Fab; remark: listed apart in the source
[17] = molecular target: T2, cynomolgus complement C3b protein; assay: as above; remark: listed apart in the source
[18] = molecular target: T1, human complement C3b protein; assay: SPR (Biacore), C3b captured by anti-C3d antibody, Fab as analyte; remark: listed apart in the source
[19] = molecular target: T2, cynomolgus complement C3b protein; assay: as above; remark: listed apart in the source
[20] = molecular target: T1, human complement C3b protein; assay: bead proximity assay, C3b-acceptor beads; competitor biotinylated fH; remark: listed apart in the source
Protocol: (§2) In brief, purified C3b and fP were conjugated to unconjugated acceptor or donor beads (PerkinElmer) using AminoLink Reductant (Pierce) during a 48 h incubation at room temperature. Beads were quenched using Carboxymethoxylamine Hemihydrochloride (Aldrich), and purified by centrifugation at 13000 rpm and three washes with 0.1M TBST. Purified fB(D24G/N260D) and fH were biotinylated during a 30 min incubation with 20-fold molar excess of NHS-Chromogenic-biotin (Pierce) at room temperature, and purified using Zeba 0.5 ml desalting columns (Pierce).
as §1

[21] = molecular target: T1, human complement C3b protein; assay: bead proximity assay, C3b-acceptor beads; competitor biotinylated fB(D24G/N260D); remark: listed apart in the source
Protocol: as §2, §1

T1 sequence (P01024 23-667 P314L, chain 1 of 2): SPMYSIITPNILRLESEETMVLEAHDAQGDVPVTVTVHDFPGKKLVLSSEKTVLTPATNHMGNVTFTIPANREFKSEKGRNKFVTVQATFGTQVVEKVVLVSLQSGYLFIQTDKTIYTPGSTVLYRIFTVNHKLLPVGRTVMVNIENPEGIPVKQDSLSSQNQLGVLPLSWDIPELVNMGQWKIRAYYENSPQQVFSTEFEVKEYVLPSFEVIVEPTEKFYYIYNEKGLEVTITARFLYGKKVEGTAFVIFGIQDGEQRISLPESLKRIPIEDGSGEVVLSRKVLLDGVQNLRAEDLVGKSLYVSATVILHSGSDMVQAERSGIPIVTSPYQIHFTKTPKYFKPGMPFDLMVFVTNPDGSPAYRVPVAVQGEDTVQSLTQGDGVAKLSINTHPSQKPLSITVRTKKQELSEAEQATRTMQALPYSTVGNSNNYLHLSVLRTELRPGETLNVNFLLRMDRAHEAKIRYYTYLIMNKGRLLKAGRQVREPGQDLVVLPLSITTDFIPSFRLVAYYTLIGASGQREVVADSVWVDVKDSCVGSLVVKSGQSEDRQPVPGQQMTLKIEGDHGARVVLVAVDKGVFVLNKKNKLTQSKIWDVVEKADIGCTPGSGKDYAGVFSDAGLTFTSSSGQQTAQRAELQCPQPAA
T1 sequence (P01024 749-1663, chain 2 of 2): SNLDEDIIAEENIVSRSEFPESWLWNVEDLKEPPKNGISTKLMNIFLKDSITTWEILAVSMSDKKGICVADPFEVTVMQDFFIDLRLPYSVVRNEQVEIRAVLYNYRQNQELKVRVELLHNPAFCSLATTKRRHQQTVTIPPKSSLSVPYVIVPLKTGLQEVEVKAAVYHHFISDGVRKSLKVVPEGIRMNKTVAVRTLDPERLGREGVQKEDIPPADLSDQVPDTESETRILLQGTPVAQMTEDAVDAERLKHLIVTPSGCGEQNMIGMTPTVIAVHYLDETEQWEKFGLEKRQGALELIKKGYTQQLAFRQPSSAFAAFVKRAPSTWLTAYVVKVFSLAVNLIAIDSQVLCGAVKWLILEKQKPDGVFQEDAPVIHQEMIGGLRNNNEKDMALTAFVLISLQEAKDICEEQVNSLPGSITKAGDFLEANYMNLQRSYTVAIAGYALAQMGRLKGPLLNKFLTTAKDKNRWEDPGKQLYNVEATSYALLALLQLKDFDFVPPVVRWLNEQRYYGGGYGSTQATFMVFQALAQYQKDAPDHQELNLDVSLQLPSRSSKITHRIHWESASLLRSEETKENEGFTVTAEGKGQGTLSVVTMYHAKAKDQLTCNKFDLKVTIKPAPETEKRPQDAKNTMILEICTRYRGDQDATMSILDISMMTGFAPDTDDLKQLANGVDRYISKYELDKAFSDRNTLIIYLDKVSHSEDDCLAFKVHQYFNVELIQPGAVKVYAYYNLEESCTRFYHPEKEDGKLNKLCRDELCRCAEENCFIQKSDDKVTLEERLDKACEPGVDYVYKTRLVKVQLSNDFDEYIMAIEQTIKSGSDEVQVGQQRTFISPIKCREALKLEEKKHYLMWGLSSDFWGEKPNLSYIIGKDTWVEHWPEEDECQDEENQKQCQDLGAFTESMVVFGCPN

C3b Dep (nM), human serum, IC50 [1]: 13 nM
HA (nM), 10% human serum, IC50 [1]: 45 nM
MAC Dep (nM), human serum, IC50 [1]: 1 nM
C3b Dep (nM), cyno serum, IC50 [2]: 56 nM
HA (nM), 10% cyno serum, IC50 [2]: 86 nM
MAC Dep (nM), cyno serum, IC50 [2]: 5 nM
binding result [3]: no binding
Kd [4]: 0.004 nM
Kd [5]: 0.1 nM
Kd [6]: 0.003 nM
Kd [7]: 0.092 nM
IC50 [8]: 300 nM
IC50 [9]: 0.1 nM
IC50 [10]: 0.1 nM
binding result [11]: no binding
B1: MOR09398 Fab (Fab, V domains shown)
VH: QVQLVESGGGLVQPGGSLRLSCAASGFTFSSYWMTWVRQAPGKGLEWVSSIKIKPDGYAASVKGRFTISRDNSKNTLYLQMNSLRAEDTAVYYCARLFYQYFARMDYWGQGTLVTVSS
VL: DIQMTQSPSSLSASVGDRVTITCRASQDISNYLNWYQQKPGKAPKLLIYAASNLQSGVPSRFSGSGSGTDFTLTISSLQPEDFATYYCQQWDSFSPTFGQGTKVEIKR
notes: also called Fab 9398

C3a (nM), human, inhibition of C3a generation [12]: 90 nM
C3b Dep (nM), human serum, IC50 [12]: 24 nM
C5a (nM), human, inhibition of C5a generation [12]: 17 nM
HA (nM), 10% human serum, IC50 [12]: 62 nM
MAC Dep (nM), human serum, IC50 [12]: 4 nM
C3b Dep (nM), cyno serum, IC50 [13]: 43 nM
HA (nM), 10% cyno serum, IC50 [13]: 99 nM
MAC Dep (nM), cyno serum, IC50 [13]: 18 nM
binding result [14]: no binding (tested: 200 nM)
binding result [15]: no binding
Kd [16]: 0.0015 nM
Kd [17]: 0.018 nM
Kd [18]: 0.0066 nM
Kd [19]: 0.042 nM
IC50 [20]: 0.2 nM
IC50 [21]: 0.15 nM
B2: MOR9556 Fab format (Fab, V domains shown)
VH: B1 VH with Q1E
VL: DIQMTQSPSSLSASVGDRVTITCRASQDISNYLNWYQQKPGKAPKLLIYAASNLQSGVPSRFSGSGSGTDFTLTISSLQPEDFATYYCQQYDSYSPTFGQGTKVEIK

C3b Dep (nM), human serum, IC50 [1]: 13 nM
HA (nM), 10% human serum, IC50 [1]: 35 nM
MAC Dep (nM), human serum, IC50 [1]: 1 nM
C3b Dep (nM), cyno serum, IC50 [2]: 35 nM
HA (nM), 10% cyno serum, IC50 [2]: 59 nM
MAC Dep (nM), cyno serum, IC50 [2]: 7 nM
binding result [3]: no binding
Kd [4]: 0.002 nM
Kd [5]: 0.12 nM
Kd [6]: 0.007 nM
Kd [7]: 0.089 nM
IC50 [8]: 300 nM
IC50 [9]: 0.1 nM
IC50 [10]: 0.1 nM
binding result [11]: no binding
B3: MOR09397 Fab (Fab, V domains shown)
VH: B1 VH
VL: B1 VL with W91H, S93T, S95R
notes: also called Fab 9397

C3a (nM), human, inhibition of C3a generation [12]: 97 nM
C3b Dep (nM), human serum, IC50 [12]: 11 nM
C5a (nM), human, inhibition of C5a generation [12]: 36 nM
HA (nM), 10% human serum, IC50 [12]: 60 nM
MAC Dep (nM), human serum, IC50 [12]: 3 nM
C3b Dep (nM), cyno serum, IC50 [13]: 43 nM
HA (nM), 10% cyno serum, IC50 [13]: 92 nM
MAC Dep (nM), cyno serum, IC50 [13]: 14 nM
binding result [14]: no binding (tested: 200 nM)
binding result [15]: no binding
Kd [16]: 0.052 nM
Kd [17]: 0.241 nM
Kd [18]: 0.121 nM
Kd [19]: 0.562 nM
IC50 [20]: 0.2 nM
IC50 [21]: 1 nM
B4: MOR9675 Fab format (Fab, V domains shown)
VH: EVQLVQSGAEVKKPGASVKVSCKASGYTFTGYYINWVRQAPGQGLEWMGIISPNQGTTGYAQKFQGRVTMTRDTSISTAYMELSSLRSEDTAVYYCARGNYDHLDYWGQGTLVTVSS
VL: DIQMTQSPSSLSASVGDRVTITCRASQGISNYLNWYQQKPGKAPKLLIYDASTLQSGVPSRFSGSGSGTDFTLTISSLQPEDFATYYCQQDWHTLPVTFGQGTKVEIK
